Measurements taken from the DeepSol protein solubility set.

Test: soluble on expression in E. coli; label from the status in PepcDB or PDB records

| Sequence | soluble on expression in E. coli |
| --- | --- |
| MGSDKIHHHHHHMANIYPKRAIYCACAKTRKQRRSSYMSNERYNLRGVSASKEDVHAAIKNVDKGIFPQAFCKIIPDILGGDPDYCNIMHADGAGTKSSLAYVYWRETGDLSVWKGIAQDALIMNIDDLLCVGAVDNILVSSTIGRNKRLIPGEVVSAIINGTEELLADLRRMGVNAYATGGETADVGDLVRTIIVDSTVTCRMKRSDVIDNARIKAGDVIVGLASFGQASYEEQYNGGMGSNGLTSARHDVFAHYLAEKYPESFDPSVPDDLVYSGSMKLTDAIAGLGLDAGKLVLSPTRTYAPVVKAILDEMSRRIHGMVHCSGGAQTKVMHFVKNKRVVKDNFFPTPPLFELIQRESLTEWSEMYKVFNMGHRLEVYLSEENASHVIEISESFGIPARIVGRVEEAPTNELILQTPYGEIRY | not soluble |
| SPSAEECGYSDRVRSITLGNSTITTQESANVVVGYGRWPEYLRDDEATAEDQPTQPDVATCRFYTLESVTWEKDSPGWWWKFPDALKDMGLFGQNMYYHYLGRAGYTIHVQCNASKFHQGCLLVVCVPEAEMGCSTVDGTVNEHGLSEGETAKKFSATGTNGTNTVQSIVTNAGMGVGVGNLTIFPHQWINLRTNNCATIVMPYINNVPMDNMFRHHNFTLMIIPFVPLNYSSDFSTYVPITVTVAPMCAEYNGLRLSTALQ | soluble |
| MHRDSTDIEVKRASELPENLPETTCAFANMPSGGTIILGVDENRDFEVVGVADAAALEEALISQTRNSVKPAPMIECETFTLEGKQVLVAQVNPVPLQNRPAHYRGVAYLRQSDGDYGMNDADLALVEIQKLSHSENFQFDVVPVLNSSTRDLDSVRVKSFLEAARAGSRILSKKIDDQELLETLNIVTVKGAAALEHHHHHH | not soluble |
| MRKLKYQRDFFPLLHLNYGSNWRCGMDRIAYFKSLLEKNPDNPMVHYSLGLEYFKVKDYENAIKHLERYLELQEDEGAAYRTLAKCYEELGEFQKAIEVLEEGIRQAMKYNHPSMAQEYQQWIEELKGMAFLEHHHHHH | not soluble |
| MGGSHHHHHHGMASALATRQRESSITSCCSTSSCDADDEGVRGTCEDASLCKRFAVSIGYWHDPYIQHFVRLSKERKAPEINRGYFARVHGVSQLIKAFLRKTECHCQIVNLGAGMDTTFWRLKDEDLLPSKYFEVDFPMIVTRKLHSIKCKPPLSSPILELHSEDTLQMDGHILDSKRYAVIGADLRDLSELEEKLKKCNMNTQLPTLLIAECVLVYMTPEQSANLLKWAANSFERAMFINYEQVNMGDRFGQIMIENLRRRQCDLAGVETCKSLESQKERLLSNGWETASAVDMMELYNRLPRAEVSRIESLEFLDEMELLEQLMRHYCLCWATKGGNELGLKEITY | not soluble |
| MLYANKTVGNTSYKLSKKSIKEQTMLQKNKDLLIEIATRDVKSVFAYFKTTRDGLSMKEAQKRIQVYGRNELTSKRALLAEVMMKLGGMIPGFSKQRVCDELQRETITVSRVECSSSTGLNSELKMMEIPVQELVPGDMIFLSAGDAVPADVRIIYADDLLVNESVLTGNEANIEKFESCYHLERKRFIPLKRMKDYNPLELENVCFKGSHIVSGNAKAIVVSTGKNTYSGILHTCCSRTS | not soluble |
| MAHHHHHHMKNFFILHLRNNYSIFLNKPLQVFTLNVKLNSHVKVNYKHELLTYEFRKITYVKKKKKKSYHNCDGRYITTLNKTININEKYSKLKNDGLLNSTPDNHIKDNIIKEDLLYRKNNEKENEEVIKSNIDENKNVHMNDQNEQNKHCYNKLLIESCCHIDKDVKKSLLEIFQYKEFTDVQRIVYDNIIKEKKQNDLLIQAKTGTGKTIAYLLLSINDIIKNKILSVHTLIIVPTRELANQIYNECKLLLTYKHNINVLTLTGGIKRRDDQLNIRRIKPDIIICTVGRLLDHFESTYLFNTLFENLKMLIIDEADQLLSTGYENDIHRLLTYLPSNRRNILLSATLGYNLDEIRKKMCKSDYIYLNCVKDISKHTSDQLIQYVLFHKAIDTTIILYNLLIEHMRLNQFTYKIIVFFPTARATSFYAQFFINQLKISVYEIHRKKEMAHRQITANRFSMESVGILFTSDISSRGLNYPDITLIIQVNTPISREQYIHRVGRTARSNKKGMAIILLNEADELFYQEIKDLNIQKLNAQNYTLKNTNLSNYLSTWMSNTQLLYLAYAYYSSILRFYKTKYTHLKINDDEIIDAVNNMLLSTGLVEQPYISRNLATTLNMQNNVKLKIRKDLDDILLL | not soluble |
| MSLARIKDVAELAGVNRSTVSRIINGEGKFREETRKKVEQAMAQLNYRPSAIARSLATSSSNMVGLLVTYYTGGFFGEMMEQVQTELDIHKKFLITAQGHHSAEGEKEAIQRFNDLRCDGYVLHSRYLSDDDLRELAKLPTPFVLLDRYVEGIEERCITFNHHHASRIAVEHLIAGGHKNIACITGPSLRHNSLLRKLGYVDAMKTAGIDIDESWCEEGNYGRQSGYDAMASILKRHPEVTAVFSCSEEMTVGAMQYLHEHKISVPEQISLTSFDSVDLCESLYPTVSAVHFPISDMARAAVQTLMGLVKKQEHIEKPVFEAKLKLRHADREGHHHHHH | soluble |
| MSHPVVSKEEWLAARRDLLVKEKELTRARDRLNEARRALPWEEVTKDYIFDAPSGPRSLQELFGDCSQLIVYHFMLAPDWEEGCVGCSFFADHVDGALVHLRHGDAGFVAVSRAPLEKIEGYKNRMGWKFPWVSAEGSDFNYDYQASFRDEDVEKGEITYNYRDMAPFGDLKDLHGISVFAKGEDGKIYHTYSTYARGAEQTLGTLMLLDLVPKGRNEDEVMDWVRRHDQYEDAPKAASCCH | not soluble |
| MQPAVYILASQRNGTLYIGVTSDLVQRIYQHREHLIEGFTSRYNVTMLVWYELHPTMESAITREKQLKKWNRAWKLQLIEENNVSWQDLWFDII | not soluble |
| MSLTLADKVVYEEEIQKSRFIAKAAPVASEEEALAFLAENREPEATHNGHAYKIGLLYRFSDDGEPSGTAGRPILHAIEAQGLDRVAVLVVRYFGGVKLGAGGLVRAYGGVAAEALRRAPKVPLVERVGLAFLVPFAEVGRVYALLEARALKAEETYTPEGVRFALLLPKPEREGFLRALLDATRGQVALE | soluble |
| MNIGVIILAAGEGKRFGGDKLLAKIDNTPIIMRTIRIYGDLEKIIIVGKYVNEMLPLLMDQIVIYNPFWNEGISTSLKLGLRFFKDYDAVLVALGDMPFVTKEDVNKIINTFKPNCKAVIPTHKGERGNPVLISKSLFNEIEKLRGDVGARVILNKIKIEELCFIECSEGVLIDIDKKEDLMRLRDFHPLEHHHHHH | soluble |
| MSLEPASAPKVERLEVSAYTVPTETPESDGTIAWSETTLVMVRMAACGAEGLGYTFADVATAALIDAHLKDAVVGHNPLNIPELWSTMVRKVRNLGRPGVCSMAISAVDNALWDLKARLLHLSVADLLGRAHDSIGAYGSGGFTSYSDEELRQQLTGWIGQGLTQVKMKIGSDPASDLARVRSARGAIGPDAELFVDANGAYDRKQALAKAAAFADLGVSWFEEPVSSDDLAGLRLIRERAPAGMRIAAGEYGYDSFYFRRMLEAEAVDVLQGDATRCAGITGFLAAGNLSTSFSTPFSAHTAPSLHAHAACALTSAINVEYFFDHYRIEQMFFDGALVPSNGVLRPDSTRPGFGLECKLSDMEKYRVYGNVTTEGHHHHHH | not soluble |
| MAHHHHHHMKVENSKMEVKREQSYSNEDEEINEEDLNWWEQENLRIAMKGERRWETLAHNGVLFPPEYEPHGIPIFYDGREFKMTPEEEEVATMFAVMKEHDYYRMEVFRRNFFESWREILGKRQHPIRRLELCDFEPIYQWYLVQREKKLSRTKEEKKAIKEKQDAEAEPYRYCVWDGRREQVANFRVEPPGLFRGRGKHPLMGKLKVRVQPEDITINIGETAEVPVPPAGHKWAAVQHDHTVTWLAMWRDNVAGNMKYVMLAPSSSVKGQSDMVKFEKARKLKDKVDDIRASYMEAFKSNDLHVAQRAVAMYFIDRLALRVGNEKGEDEADTVGCCSLRVEHIQLMPDNIVRFDFLGKDSIRYQNDVAVLPEVYALLQRFTCRKSPGMDIFDQLNPTQLNDHLKSFMDGLSAKVFRTYNASITLDRWFKEKPVDPKWSTADKLAYFNKANTEVAILCNHQKSVSKNFKLQMMQLTTKSEYTRKTLELLEKAEVTAKKKSVEEAAKEFLEEQDRMQREWLESYGTEEQKKEFEEIVAKRAAPRVRSEKKSSSGTKKAKSASGKTRAATKKKSAKKSGKASSKKAARKSSKKAPKRSKEEDEDDVPLMSMAAKTKKTAGVKRQRAVKVASDDDDVPLAALRV | not soluble |
